Laboratory results from article PMC4722774, “Characterization of a cold-active esterase from Serratia sp. and improvement of thermostability by directed evolution” (BMC Biotechnology, 2016).

B1: EstS (Serratia sp. HZ15) (protein)
chain: MPLDPQIARFLAEAAQAPAPASLSEMREVAHAGLLALQGEAEASGGVRDGWVTADDGRAIAIRAYTPGGATPGEPLPAMLYAHGGGWCLGSLALYDRPCQALANATGRVILSVDYRLAPEYPYPRPLEDVYQALCGVVERADEWGVDVARMAVGGDSAGGNLAAAVALLARDRKGPQIEHQLLLYPALSRAMDTASYKEYAQGYYLTREVMAFCWNTYLGEADKPQDPYAEPLHAPMLQRLPPATILSCEYDPLRDEAELYAKRLQEAGVAVRCERLPGMVHACIHMLGLTPAARVLFDKVG
notes: full-length 302 residues, no signal peptide predicted; GST fusion (pGEX-6P-1) in E. coli BL21 (DE3), GST cut off by 3C protease; ~32 kDa

Experiments:
[1] = tested on: T1, CC(=O)Oc1ccc([N+](=O)[O-])cc1; assay: purified protein; type: biochemical, Serratia sp. HZ15; conditions: pH 8.5, 50 mM Tris-HCl, 10 °C, 0.01-0.3 mM substrate
T1 construct: full-length 302 residues, no signal peptide predicted; GST fusion (pGEX-6P-1) in E. coli BL21 (DE3), GST cut off by 3C protease; ~32 kDa

purified protein = substrate: CC(=O)Oc1ccc([N+](=O)[O-])cc1; assay: purified protein; type: biochemical, Serratia sp. HZ15; conditions: pH 8.5, 50 mM Tris-HCl, 10 °C, 0.01-0.3 mM substrate

Molecule | Km [1] [µM] | kcat [1] [s⁻¹] | kcat/Km [1] [M⁻¹ s⁻¹] | Km (purified protein) [µM] | kcat (purified protein) [s⁻¹] | kcat/Km (purified protein) [M⁻¹ s⁻¹]
EstS (Serratia sp. HZ15; A43V/D147N/R116W) | 87.59 ± 2.4 | 2500 | 2.86e+07 ± 3.7e+06 |  |  | 
B1 |  |  |  | 74.02 ± 1.9 | 2340 | 3.16e+07 ± 3.1e+06
